Measurements reported in the supplement of paper PMC10065799, “High-throughput profiling of sequence recognition by tyrosine kinases and SH2 domains using bacterial peptide display” (eLife, 2023).

Columns and labels:
Fyn = Fyn (UniProt P06241); assay: phosphorylation enrichment, bacterial display (enrichment ratio); higher = better substrate or ligand; peptides without Tyr show the background
Fes = Fes (UniProt P07332); assay: as above
AncSZ = assay: as above
Jak2 = Jak2 (UniProt O60674); assay: as above
c-Src = assay: as above
MERTK = MERTK (UniProt Q12866); assay: as above
EPHB2 = EPHB2 (UniProt P29323); assay: as above
c-Abl (mouse) = assay: as above
EPHB1 = EPHB1 (UniProt P54762); assay: as above
Fer (mouse) = assay: as above
FGFR3 = FGFR3 (UniProt P22607); assay: as above
Hck = Hck (UniProt P08631); assay: as above
FGFR1 = FGFR1 (UniProt P11362); assay: as above
SHP2-C SH2 = assay: SH2 binding enrichment of the phosphorylated peptide, bacterial display (enrichment ratio); higher = better substrate or ligand; peptides without Tyr show the background
Grb2 SH2 = Grb2 SH2 (UniProt P62993); assay: as above
c-Src SH2 = assay: as above
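Wherever SH2 binding enrichment of the phosphorylated peptide, bacterial display is given: peptide library displayed on the E. coli surface as eCPX fusions, selected cells deep-sequenced, score is each peptide's frequency after selection divided by its frequency in the input.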
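Wherever phosphorylation enrichment, bacterial display is given: 11-residue human phosphosite peptides and single-mutation variants displayed on the E. coli surface, counted by deep sequencing, each peptide's frequency after selection divided by its frequency in the unselected input library; frequency after pTyr selection over input frequency; kinase dosed for 20-30% of maximal phosphorylation in three min.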

MERTK, sequence (Q12866 whole entry, looked up): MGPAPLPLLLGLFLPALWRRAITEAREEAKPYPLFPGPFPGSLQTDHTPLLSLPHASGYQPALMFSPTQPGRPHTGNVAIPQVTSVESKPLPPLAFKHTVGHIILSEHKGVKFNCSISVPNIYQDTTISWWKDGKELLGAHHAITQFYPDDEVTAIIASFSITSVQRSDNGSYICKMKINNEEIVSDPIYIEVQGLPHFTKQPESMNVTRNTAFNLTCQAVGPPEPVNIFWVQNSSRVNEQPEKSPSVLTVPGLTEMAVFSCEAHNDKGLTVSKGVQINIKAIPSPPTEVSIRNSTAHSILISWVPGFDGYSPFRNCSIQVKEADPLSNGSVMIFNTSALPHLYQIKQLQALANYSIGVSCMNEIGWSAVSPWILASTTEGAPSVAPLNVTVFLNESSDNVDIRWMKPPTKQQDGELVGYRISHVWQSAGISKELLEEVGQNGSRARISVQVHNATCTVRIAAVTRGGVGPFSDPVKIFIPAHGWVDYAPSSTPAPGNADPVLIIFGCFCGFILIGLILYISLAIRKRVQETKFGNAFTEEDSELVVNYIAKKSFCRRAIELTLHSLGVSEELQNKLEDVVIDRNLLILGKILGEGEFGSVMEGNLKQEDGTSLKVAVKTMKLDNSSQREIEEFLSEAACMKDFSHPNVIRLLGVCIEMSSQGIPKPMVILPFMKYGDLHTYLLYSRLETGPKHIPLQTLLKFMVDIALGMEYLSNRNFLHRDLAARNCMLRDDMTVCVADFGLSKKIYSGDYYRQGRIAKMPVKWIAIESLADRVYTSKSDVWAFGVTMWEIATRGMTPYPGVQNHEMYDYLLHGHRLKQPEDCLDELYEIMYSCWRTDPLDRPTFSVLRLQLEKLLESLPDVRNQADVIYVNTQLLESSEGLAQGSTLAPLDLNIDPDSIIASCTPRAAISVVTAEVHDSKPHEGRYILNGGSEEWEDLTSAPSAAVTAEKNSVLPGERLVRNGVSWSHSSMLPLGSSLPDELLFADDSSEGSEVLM
EPHB1, sequence (P54762 whole entry, looked up): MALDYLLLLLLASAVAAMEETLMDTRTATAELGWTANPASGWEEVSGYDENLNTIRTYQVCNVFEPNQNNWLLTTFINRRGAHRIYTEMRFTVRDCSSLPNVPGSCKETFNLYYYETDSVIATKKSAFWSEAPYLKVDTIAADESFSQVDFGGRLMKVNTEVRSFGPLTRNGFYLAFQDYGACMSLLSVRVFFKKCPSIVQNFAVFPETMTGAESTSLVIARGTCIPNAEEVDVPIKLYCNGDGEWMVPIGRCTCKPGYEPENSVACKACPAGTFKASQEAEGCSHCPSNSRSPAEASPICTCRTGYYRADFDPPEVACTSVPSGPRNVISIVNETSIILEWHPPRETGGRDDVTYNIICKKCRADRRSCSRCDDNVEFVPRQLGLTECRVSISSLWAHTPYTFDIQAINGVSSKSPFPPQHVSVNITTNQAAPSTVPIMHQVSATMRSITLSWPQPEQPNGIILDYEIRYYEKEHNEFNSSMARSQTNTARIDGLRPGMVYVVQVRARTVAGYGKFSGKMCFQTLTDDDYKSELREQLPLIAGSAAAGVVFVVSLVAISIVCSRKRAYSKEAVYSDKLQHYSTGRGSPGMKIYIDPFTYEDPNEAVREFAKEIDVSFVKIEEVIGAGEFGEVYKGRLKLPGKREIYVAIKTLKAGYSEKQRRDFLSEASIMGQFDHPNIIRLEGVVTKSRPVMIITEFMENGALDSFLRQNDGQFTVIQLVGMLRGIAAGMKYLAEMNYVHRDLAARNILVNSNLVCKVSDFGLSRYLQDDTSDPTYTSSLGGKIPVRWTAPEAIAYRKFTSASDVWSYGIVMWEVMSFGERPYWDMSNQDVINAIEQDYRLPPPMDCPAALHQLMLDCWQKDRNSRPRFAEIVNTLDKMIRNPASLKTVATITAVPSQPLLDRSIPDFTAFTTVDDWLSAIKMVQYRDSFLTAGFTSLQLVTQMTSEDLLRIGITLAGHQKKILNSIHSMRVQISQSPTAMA
Grb2 SH2, sequence (P62993 whole entry, looked up): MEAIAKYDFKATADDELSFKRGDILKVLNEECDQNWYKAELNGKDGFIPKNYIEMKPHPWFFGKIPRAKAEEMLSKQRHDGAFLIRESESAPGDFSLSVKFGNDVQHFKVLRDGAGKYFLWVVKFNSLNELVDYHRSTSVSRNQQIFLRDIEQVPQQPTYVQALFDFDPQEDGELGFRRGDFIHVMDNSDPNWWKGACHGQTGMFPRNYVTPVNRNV
EPHB2, sequence (P29323 whole entry, looked up): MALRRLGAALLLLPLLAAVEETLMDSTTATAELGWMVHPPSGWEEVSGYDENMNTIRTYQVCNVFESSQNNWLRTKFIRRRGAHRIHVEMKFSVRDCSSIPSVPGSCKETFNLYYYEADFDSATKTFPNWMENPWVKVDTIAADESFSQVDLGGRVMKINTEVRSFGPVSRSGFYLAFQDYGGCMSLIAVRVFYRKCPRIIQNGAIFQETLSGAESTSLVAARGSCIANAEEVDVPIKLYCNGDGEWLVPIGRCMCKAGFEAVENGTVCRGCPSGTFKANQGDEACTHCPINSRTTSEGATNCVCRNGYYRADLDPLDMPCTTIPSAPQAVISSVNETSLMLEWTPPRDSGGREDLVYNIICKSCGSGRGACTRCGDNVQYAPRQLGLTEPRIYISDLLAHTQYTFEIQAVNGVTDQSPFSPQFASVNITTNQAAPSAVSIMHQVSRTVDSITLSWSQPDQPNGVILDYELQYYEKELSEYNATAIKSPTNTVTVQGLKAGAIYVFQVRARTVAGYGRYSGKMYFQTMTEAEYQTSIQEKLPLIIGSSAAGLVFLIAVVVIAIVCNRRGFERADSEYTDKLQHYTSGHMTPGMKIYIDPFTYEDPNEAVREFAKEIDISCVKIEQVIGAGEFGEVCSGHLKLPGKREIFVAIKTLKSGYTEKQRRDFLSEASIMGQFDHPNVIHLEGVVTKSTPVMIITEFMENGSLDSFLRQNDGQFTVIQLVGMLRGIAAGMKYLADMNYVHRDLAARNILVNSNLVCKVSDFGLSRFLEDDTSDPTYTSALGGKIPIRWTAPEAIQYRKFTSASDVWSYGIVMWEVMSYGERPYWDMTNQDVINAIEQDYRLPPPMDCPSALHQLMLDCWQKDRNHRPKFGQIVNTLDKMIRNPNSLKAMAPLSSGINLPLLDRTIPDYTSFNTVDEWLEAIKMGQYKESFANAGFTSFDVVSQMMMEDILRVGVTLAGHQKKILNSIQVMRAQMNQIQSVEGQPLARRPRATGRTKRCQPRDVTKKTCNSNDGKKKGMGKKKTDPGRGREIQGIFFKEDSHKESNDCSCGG
Hck, sequence (P08631 whole entry, looked up): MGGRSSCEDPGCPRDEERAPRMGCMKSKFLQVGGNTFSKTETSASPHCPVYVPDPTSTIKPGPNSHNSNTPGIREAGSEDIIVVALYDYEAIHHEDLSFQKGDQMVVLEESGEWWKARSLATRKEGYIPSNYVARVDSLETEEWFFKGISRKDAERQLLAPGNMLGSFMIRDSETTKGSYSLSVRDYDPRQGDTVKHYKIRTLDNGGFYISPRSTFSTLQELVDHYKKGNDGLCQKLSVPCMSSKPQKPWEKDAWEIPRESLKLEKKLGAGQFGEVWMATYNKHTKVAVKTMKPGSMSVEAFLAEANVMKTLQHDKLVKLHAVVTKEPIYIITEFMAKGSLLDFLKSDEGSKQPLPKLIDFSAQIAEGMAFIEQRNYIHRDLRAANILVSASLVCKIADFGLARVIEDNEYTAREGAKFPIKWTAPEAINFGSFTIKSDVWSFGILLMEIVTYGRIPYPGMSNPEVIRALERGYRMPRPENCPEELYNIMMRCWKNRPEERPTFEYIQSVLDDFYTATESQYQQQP
Jak2, sequence (O60674 whole entry, looked up): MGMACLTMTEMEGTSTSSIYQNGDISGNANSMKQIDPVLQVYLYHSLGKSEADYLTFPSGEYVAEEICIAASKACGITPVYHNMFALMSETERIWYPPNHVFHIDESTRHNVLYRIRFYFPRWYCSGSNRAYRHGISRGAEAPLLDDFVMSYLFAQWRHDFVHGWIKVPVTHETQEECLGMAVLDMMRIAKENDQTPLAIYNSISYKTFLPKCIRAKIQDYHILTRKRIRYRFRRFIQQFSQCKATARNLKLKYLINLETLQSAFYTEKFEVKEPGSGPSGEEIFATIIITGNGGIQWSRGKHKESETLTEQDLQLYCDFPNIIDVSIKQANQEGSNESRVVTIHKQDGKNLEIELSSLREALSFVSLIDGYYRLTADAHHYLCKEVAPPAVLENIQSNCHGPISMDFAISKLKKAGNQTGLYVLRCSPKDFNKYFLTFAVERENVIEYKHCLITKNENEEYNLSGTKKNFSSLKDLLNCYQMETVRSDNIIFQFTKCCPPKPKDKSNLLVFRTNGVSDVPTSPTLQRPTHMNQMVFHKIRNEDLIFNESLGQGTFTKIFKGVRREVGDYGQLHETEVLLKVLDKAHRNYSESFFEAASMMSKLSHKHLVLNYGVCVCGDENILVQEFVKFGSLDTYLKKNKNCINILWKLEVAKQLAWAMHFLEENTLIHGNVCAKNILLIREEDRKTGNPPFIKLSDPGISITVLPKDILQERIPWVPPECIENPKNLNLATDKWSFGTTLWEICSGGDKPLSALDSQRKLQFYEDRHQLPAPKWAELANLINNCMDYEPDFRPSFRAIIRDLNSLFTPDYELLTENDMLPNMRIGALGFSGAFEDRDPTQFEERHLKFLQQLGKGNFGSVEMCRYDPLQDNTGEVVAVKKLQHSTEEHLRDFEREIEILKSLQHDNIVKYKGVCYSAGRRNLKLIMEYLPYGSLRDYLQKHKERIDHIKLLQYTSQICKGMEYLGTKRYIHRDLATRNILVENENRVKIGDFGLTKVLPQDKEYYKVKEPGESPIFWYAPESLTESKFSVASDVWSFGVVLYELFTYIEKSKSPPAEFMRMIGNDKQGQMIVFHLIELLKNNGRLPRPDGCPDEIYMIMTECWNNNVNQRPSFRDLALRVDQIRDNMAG

| Sequence | phosphorylation enrichment (Fyn) | phosphorylation enrichment (Fes) | phosphorylation enrichment (AncSZ) | phosphorylation enrichment (Jak2) | phosphorylation enrichment (c-Src) | phosphorylation enrichment (MERTK) | phosphorylation enrichment (EPHB2) | phosphorylation enrichment (c-Abl (mouse)) | phosphorylation enrichment (EPHB1) | phosphorylation enrichment (Fer (mouse)) | phosphorylation enrichment (FGFR3) | phosphorylation enrichment (Hck) | phosphorylation enrichment (FGFR1) | SH2 binding enrichment (SHP2-C SH2) | SH2 binding enrichment (Grb2 SH2) | SH2 binding enrichment (c-Src SH2) |
| --- | --- | --- | --- | --- | --- | --- | --- | --- | --- | --- | --- | --- | --- | --- | --- | --- |
| GVMLLYFGRFN [ADGRD1_Y85_T82M_YF] | 0.441 | 1.26 | 1.4 | 1.15 | 0.343 | 0.393 | 0.528 | 0.65 | 0.529 | 0.508 | 0.705 | 0.531 | 0.53 | 1.25 | 0.956 | 0.746 |
| NDFGNYNNQSS [HNRNPA1_Y318] | 0.333 | 0.695 | 0.523 | 0.49 | 0.343 | 0.285 | 0.352 | 0.874 | 0.392 | 0.322 | 0.419 | 0.417 | 0.417 | 0.68 | 0.826 | 0.537 |
| VDGSVYKLPPS [GCK_Y413_H416P] | 2.81 | 0.795 | 0.728 | 0.598 | 1.46 | 0.5 | 0.563 | 0.661 | 0.429 | 0.514 | 0.492 | 0.61 | 0.523 | 0.525 | 0.744 | 0.426 |
| PLFGEYFTLQI [TP53_Y327_D324Y_YF] | 6.77 | 2.8 | 4.62 | 12.9 | 8.29 | 1.13 | 2.42 | 4.41 | 2.69 | 1.49 | 12.5 | 4.51 | 16.9 | 0.629 | 0.757 | 0.394 |
| DVYVSYDCGKS [SORL1_Y139_Y141C] | 6.11 | 1.1 | 1.6 | 0.895 | 3.94 | 1.04 | 1.93 | 0.862 | 1.47 | 0.985 | 1.81 | 3.12 | 1.79 | 0.791 | 0.82 | 0.476 |
| LEYAKYGSLRG [RET_Y809_V804L] | 1.87 | 0.765 | 0.63 | 0.55 | 2.49 | 0.687 | 2.96 | 1.73 | 3.25 | 2.26 | 0.618 | 2.57 | 0.651 | 0.785 | 0.619 | 0.529 |
| KLIMECLPYGS [JAK2_Y931_Y931C] | 0.513 | 0.998 | 0.907 | 0.886 | 0.424 | 0.489 | 0.649 | 0.738 | 0.564 | 0.448 | 0.766 | 0.512 | 0.542 | 0.606 | 0.767 | 0.451 |
| SEASGYQDNIA [DES_Y363] | 0.384 | 0.94 | 0.778 | 0.783 | 0.427 | 0.515 | 0.485 | 0.616 | 0.52 | 0.551 | 0.674 | 0.485 | 0.441 | 0.567 | 0.907 | 0.52 |
| MYRVQYNSSVD [LRFN1_Y458_Q455R] | 0.435 | 0.876 | 0.785 | 0.68 | 0.411 | 0.375 | 0.437 | 0.629 | 0.487 | 0.403 | 0.715 | 0.435 | 0.433 | 0.869 | 0.659 | 0.613 |
